The target of one data set is T1, PaParE1 toxin, wild type (Pseudomonas aeruginosa, UniProt Q9I708 1-93).
T1 sequence: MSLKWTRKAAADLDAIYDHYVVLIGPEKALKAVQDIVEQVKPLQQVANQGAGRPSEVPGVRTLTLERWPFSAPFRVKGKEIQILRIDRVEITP
Description: BLI.

The data set “SEC-MALS” deals with the molecule itself. Description: SEC-MALS.

What is called Kd is the free concentration of one partner at which half of the binding sites on the other are occupied at equilibrium, for simple one-to-one binding. Read a high Kd as a looser complex. One may read the stoichiometry N as a count of units in the complex or per binding partner.

Changes are numbered by the printed parent chain. In names and notes the source's numbering stands.

Regarding RQQWQVAAIDEGLADANAGRLLEHIEIEKRWGLQ (domain or fragment) [mCh-ParD1(42-75)], the affinity with PaParE1 toxin, wild type, expressed as Kd, was 0.828 ± 0.55 nM.

B1: mCherry fused to full length ParD1 (natural protein, Pseudomonas aeruginosa, UniProt Q9I707 1-75, looked up)
chain: MSTVVSFRADDALVAALDELARATHRDRPYHLRQALAQYLERQQWQVAAIDEGLADANAGRLLEHIEIEKRWGLQ
Regarding B1, the Kd with PaParE1 toxin, wild type worked out at 0.225 ± 0.0068 nM.

B2: PaParD1 I68A, His-tagged (natural protein, Pseudomonas aeruginosa, UniProt Q9I707 1-75, looked up)
chain: B1 chain with I68A
For the molecule B2, in “SEC-MALS”, the “stoichiometry N” value came to 2.

B3: PaParD1 antitoxin, wild type, His-tagged (natural protein)
chain: B1 chain
B3: in “SEC-MALS”, the “stoichiometry N” value is 2.

The record behind these values is paper PMC9805813 (Biochemistry, 2021).
